Legend:
[1] = target: TBEV prMe-linker-sE single-chain construct (Tick-borne encephalitis virus, strain Neudoerfl); assay: crystal structure; prMe-linker-sE single chain, crystallisation pH 3.5, PDB 7QRF
[2] = target: TBEV prMe-linker-sE single-chain protein (tick-borne encephalitis virus strain Neudoerfl) (UniProt P14336); assay: crystal structure; uncleaved single-chain prMe-linker-sE; PDB 7QRF
[3] = target: Tick-borne encephalitis virus (TBEV) soluble envelope protein E (sE) (Tick-borne encephalitis virus, strain Neudoerfl); assay: SEC-MALS
[4] = target: Tick-borne encephalitis virus (TBEV) soluble envelope protein E (sE) (Tick-borne encephalitis virus, strain Neudoerfl); assay: crystal structure

TBEV prMe-linker-sE single-chain construct
stoichiometry N [1]: 2

TBEV prMe-linker-sE single-chain protein (from UniProt P14336 2-401)
stoichiometry N [2]: 2

Tick-borne encephalitis virus (TBEV) soluble envelope protein E (sE) (domain or fragment)
stoichiometry N [3]: 2 | stoichiometry N [4]: 2

Source: paper PMC9239988 (Nature Communications, 2022)
